# Test results from US20160053277A1, “Compositions Having Dicamba Decarboxylase Activity and Methods of Use” (PIONEER HI-BRED INTERNATIONAL, INC., priority 2013, published 2016).
# Changes are numbered by the printed parent chain.
# B1: 120 (protein)
# chain: MAIIDCHGHYTTTPKGVETYRNAQKAAVAKDPSFKYEKGQVVVSDDEIRESIENNQLKMQRERGTDLTIFSPRSTAGGHHIGNEYTSQFWTEHQNDLIRRVCDLFPKNFAPVAQLPQSPGVDPAKSVPEIVRTVEQMGFIGINLNPDPSGGYWKDTSLADRAFYPIYEKMVEYDIPAMIHPRNACNDCFHTTGSHALGADTTGFQQLIMSDVFKDFPSLKIIIPHGGGAVPYHWGRFRGLMQDQGYAPLEESALKNIYFDTCVYHQRGIDLLLDIVPTQNILFASEMIGAVRGIDAETGHNFDDTKRYIDNNTALNAEEKAMIFEGNARRVFSRLKTD
# modifications: Dicamba decarboxylase variant clone: DC.12.002
# B2: 122 (protein)
# chain: B1 chain with T19D, Y36G, E286D, A296P
# modifications: Dicamba decarboxylase variant clone: DC.12.103
# B3: 121 (protein)
# chain: MAIIDCHGHYTTTPKGVEDYRNAQKAAVAKDPSFKGEKGQVVVSDDEIRESIENNQLKMQRERGTDLTIFSPRWDAGGHHIGNEYTSQFWTEHQNDLIRRVCDLFPKNFAPVAQLPQSPGVDPAKSVPEIVRTVEQMGFIGINLNPDPSGGYWKDTSLADRAFYPIYEKMVEYDIPAMIHPRLACNACFHTGLSVGLGADTTGFQQLIMSDVFKDFPSLKIIIPHGGGAVPYHWGRFRGLMQDQGYAPLEESALKNIYFDTCVYHQRGIDLLLDIVPTQNILFASEMIGAVRGIDPETGHNFDDTKRYIDNNTALNAEEKAMIFEGNARRVFSRLKTD
# modifications: Dicamba decarboxylase variant clone: DC.12.014
# B4: 118 (protein)
# chain: MAKKPRIDMHSHFFPRISEQEAAKFDANHAPWLQVSAKGDTGSIMMGKNNFQPVYQALWDPAFRIEEMDAQGVDVQVTCATPVMFGYTWEANKAAQWAERMNDFALEFAAHNPQRIKVLAQVPLQDLDLACKEASRAVAAGHLGIQIGNHLGDKDLDDATLEAFLTHCANEDIPILVHGTDMMGGQRMKKWGLPWLVALAAEVQLAILSLILSGAFERIPKSLKICFSHGGGSFAFLLGLVDEAWRHVDIVREDCPRPPSEYVDRFFVDSVGNPGALELLVSVMGEDRVMLGSDYPHTTGEQKIGGLVLSSNLGESAKDKIISGNASKFFNINV
# modifications: Dicamba decarboxylase variant clone: DC.5.033
# B5: 119 (protein)
# chain: B4 chain with T180W, P194Y, L199H, A200H, L237T, L240W, H297L
# modifications: Dicamba decarboxylase variant clone:DC.5.034
# Experiment: Product analysis of reactions of purified His-tag protein with dicamba (14C assay, GC/MS, LC-MS/MS)
# Type: biochemical
# Conditions: purified protein incubated with dicamba
# Description: Alternatively, dicamba decarboxylase activity can be monitored by measuring decarboxylation products other than CO2 using product detection methods. The decarboxylation product of dicamba, 2,5-dichloro anisole or 2,5-DCA (FIG. 1C), is a volatile compound with a flash point of 21° C. To capture this volatile compound for detection, 140 ul of toluene solution is added on top of 1 ml reaction mixture to form a trapping layer in a 1.5 ml eppendorf tube. […] The reaction is kept still at room temperature overnight before being vortex mixed and centrifuged at 14,000 rpm for 15 minutes. The top toluene phase is carefully removed using a micropipette and transferred into a 12×32 mm polypropylene vial (Vial 11 mm) from MicroLiter Analytical Supplies, Inc. (catalog number 11-5300-100). The vial is sealed with Crimp seal (11 mm with FEP/Nat Rubber) from MicroLiter Analytical Supplies, Inc. (catalog number 11-0020A) using a E-Z Crimper™ 11 mm from Wheaton Inc. 1 ul of the toluene mixture is taken from the sealed vials and injected in splitless mode into a GC/MS system for sample analysis (Agilent GC/MS system with a 6890A GC, a 5973N MSD and a CTC CombiPAL auto-sampler or with a 7890A GC, a 5975C MSD and an Agilent GC Sampler 80 auto-sampler).
row,Molecule,enzymatic reaction products detected
1,B1,"2,5-DCA was detected"
2,B2,"2,5-DCA was detected"
3,B3,"2,5-DCA was detected"
4,B4,"2,5-DCA was detected"
5,B5,"2,5-DCA was detected"

# Experiment: Dicamba decarboxylation activity of computationally designed protein variants and their parents
# Conditions: statement in the description
row,Molecule,dicamba decarboxylase activity (native protein or designed variant)
1,B1,have dicamba decarboxylase activity
2,B2,have dicamba decarboxylase activity
3,B3,have dicamba decarboxylase activity
4,B4,have dicamba decarboxylase activity
5,B5,have dicamba decarboxylase activity

# Experiment: 14C assay with IPTG-induced recombinant E. coli cells: 14CO2 captured from [14C]-carboxyl-labeled dicamba
# Conditions: dicamba decarboxylation activity of the protein of the given SEQ ID NO; High / Low / No
row,Molecule,Enzymatic Detection level
1,B1,High
2,B2,High
3,B3,High
4,B4,High
5,B5,High

# Experiment: Saturation mutagenesis of SEQ ID NO:109: dicamba decarboxylation activity of point mutants (carbon dioxide released)
# Conditions: decarboxylation activity (carbon dioxide released) of point mutant compared with unmutated backbone protein; backbone SEQ ID NO: 109
row,Molecule,Fold Activity
1,B1,1.3
2,B2,0.9
3,B3,1
4,B4,1.4
5,B5,1.6
